Laboratory results from article PMC9944328 (Nature Communications, 2023).

Assays:
SSTR2 Q102^2.63A (human) = SSTR2 Q102^2.63A (human) (UniProt P30874)
SSTR2 T287^ECL3A (human) = SSTR2 T287^ECL3A (human) (UniProt P30874)
SSTR2 K291^7.32A (human) = SSTR2 K291^7.32A (human) (UniProt P30874)
SSTR2 Y302^7.43A (human) = SSTR2 Y302^7.43A (human) (UniProt P30874)
SSTR2 F127^3.37A (human) = SSTR2 F127^3.37A (human) (UniProt P30874)
SSTR2 I284^ECL3A (human) = SSTR2 I284^ECL3A (human) (UniProt P30874)
SSTR2 N276^6.55A (human) = SSTR2 N276^6.55A (human) (UniProt P30874)
SSTR2 F294^7.35A (human) = SSTR2 F294^7.35A (human) (UniProt P30874)
SSTR2 Y205^5.35A (human) = SSTR2 Y205^5.35A (human) (UniProt P30874)
[1] = molecular target: SSTR2 T194^45.51A (human) (UniProt P30874)
[2] = molecular target: human full-length SSTR2 wild-type with SmBiT at the C-terminus (human) (UniProt P30874)
SSTR2 L99^2.60A (human) = SSTR2 L99^2.60A (human) (UniProt P30874)
SSTR2 W188^ECL3A (human) = SSTR2 W188^ECL3A (human) (UniProt P30874)
[3] = molecular target: SSTR2 I195^45.52A (human) (UniProt P30874)
SSTR2 F272^6.51A (human) = SSTR2 F272^6.51A (human) (UniProt P30874)
SSTR2 P286^ECL3A (human) = SSTR2 P286^ECL3A (human) (UniProt P30874)
SSTR2 S279^6.58A (human) = SSTR2 S279^6.58A (human) (UniProt P30874)
SSTR2 S285^ECL3A (human) = SSTR2 S285^ECL3A (human) (UniProt P30874)
SSTR2 F208^5.38A (human) = SSTR2 F208^5.38A (human) (UniProt P30874)
[4] = molecular target: human full-length SSTR3 wild-type (human) (UniProt P32745)
[5] = molecular target: human full-length SSTR2 T194^45.51H (human) (UniProt P30874)
[6] = molecular target: human full-length SSTR2 V103^2.64N (human) (UniProt P30874)
[7] = molecular target: human full-length SSTR3 N101^2.64V (human) (UniProt P32745)
[8] = molecular target: human full-length SSTR3 H192^45.51T (human) (UniProt P32745)
[9] = molecular target: human full-length SSTR2 wild-type (human) (UniProt P30874)
[10] = molecular target: human full-length SSTR3 wild-type (human) (UniProt P32745); remark: listed apart in the source
[11] = molecular target: SSTR3 H192^45.51T (human) (UniProt P32745)
SSTR3 N101^2.64V (human) = SSTR3 N101^2.64V (human) (UniProt P32745)
[12] = molecular target: SSTR2 T194^45.51H (human) (UniProt P30874)
SSTR2 V103^2.64N (human) = SSTR2 V103^2.64N (human) (UniProt P30874)
[13] = molecular target: human full-length SSTR2 wild-type with SmBiT at the C-terminus (human) (UniProt P30874); remark: listed apart in the source

human full-length SSTR3 wild-type (human), sequence (P32745 whole entry): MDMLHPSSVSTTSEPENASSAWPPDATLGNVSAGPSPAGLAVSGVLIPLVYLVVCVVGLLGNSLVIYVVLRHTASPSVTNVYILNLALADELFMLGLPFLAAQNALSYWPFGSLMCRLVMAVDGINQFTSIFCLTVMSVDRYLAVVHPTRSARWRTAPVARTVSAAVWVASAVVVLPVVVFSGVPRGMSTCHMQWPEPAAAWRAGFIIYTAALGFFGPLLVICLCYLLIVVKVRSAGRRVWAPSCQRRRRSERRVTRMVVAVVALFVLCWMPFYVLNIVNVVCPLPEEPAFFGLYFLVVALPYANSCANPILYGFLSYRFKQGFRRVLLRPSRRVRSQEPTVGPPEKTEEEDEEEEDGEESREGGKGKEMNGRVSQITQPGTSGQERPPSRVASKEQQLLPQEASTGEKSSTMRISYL
human full-length SSTR2 wild-type (human), sequence (P30874 whole entry): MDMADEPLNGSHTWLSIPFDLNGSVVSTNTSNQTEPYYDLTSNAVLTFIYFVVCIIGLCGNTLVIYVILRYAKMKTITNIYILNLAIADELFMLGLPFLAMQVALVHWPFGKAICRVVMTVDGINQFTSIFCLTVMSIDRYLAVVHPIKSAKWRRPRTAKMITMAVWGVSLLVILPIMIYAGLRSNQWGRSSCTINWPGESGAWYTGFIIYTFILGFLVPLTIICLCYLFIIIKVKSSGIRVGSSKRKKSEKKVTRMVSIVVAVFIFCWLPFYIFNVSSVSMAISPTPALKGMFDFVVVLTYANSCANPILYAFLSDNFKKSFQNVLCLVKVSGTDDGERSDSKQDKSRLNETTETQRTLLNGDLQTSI
human full-length SSTR2 wild-type with SmBiT at the C-terminus (human), sequence (P30874 whole entry): as above
human full-length SSTR2 V103^2.64N (human), sequence (P30874 whole entry V103N): as the sequence (P30874 whole entry) above, with V103N counted along it
human full-length SSTR3 H192^45.51T (human), sequence (P32745 whole entry H192T): as the sequence (P32745 whole entry) above, with H192T counted along it
human full-length SSTR2 T194^45.51H (human), sequence (P30874 whole entry T194H): as the sequence (P30874 whole entry) above, with T194H counted along it
human full-length SSTR3 N101^2.64V (human), sequence (P32745 whole entry): as the sequence (P32745 whole entry) above
SSTR2 S279^6.58A (human), sequence (P30874 whole entry S279A): as the sequence (P30874 whole entry) above, with S279A counted along it
SSTR2 V103^2.64N (human), sequence (P30874 whole entry V103N): as the sequence (P30874 whole entry) above, with V103N counted along it
SSTR3 H192^45.51T (human), sequence (P32745 whole entry H192T): as the sequence (P32745 whole entry) above, with H192T counted along it
SSTR2 Q102^2.63A (human), sequence (P30874 whole entry Q102A): as the sequence (P30874 whole entry) above, with Q102A counted along it
SSTR2 L99^2.60A (human), sequence (P30874 whole entry L99A): as the sequence (P30874 whole entry) above, with L99A counted along it
SSTR2 K291^7.32A (human), sequence (P30874 whole entry K291A): as the sequence (P30874 whole entry) above, with K291A counted along it
SSTR2 W188^ECL3A (human), sequence (P30874 whole entry W188A): as the sequence (P30874 whole entry) above, with W188A counted along it
SSTR2 F208^5.38A (human), sequence (P30874 whole entry F208A): as the sequence (P30874 whole entry) above, with F208A counted along it
SSTR2 P286^ECL3A (human), sequence (P30874 whole entry P286A): as the sequence (P30874 whole entry) above, with P286A counted along it
SSTR2 T287^ECL3A (human), sequence (P30874 whole entry T287A): as the sequence (P30874 whole entry) above, with T287A counted along it
SSTR2 F272^6.51A (human), sequence (P30874 whole entry F272A): as the sequence (P30874 whole entry) above, with F272A counted along it
SSTR2 T194^45.51H (human), sequence (P30874 whole entry T194H): as the sequence (P30874 whole entry) above, with T194H counted along it
SSTR2 Y302^7.43A (human), sequence (P30874 whole entry Y302A): as the sequence (P30874 whole entry) above, with Y302A counted along it
SSTR2 Y205^5.35A (human), sequence (P30874 whole entry Y205A): as the sequence (P30874 whole entry) above, with Y205A counted along it
SSTR2 N276^6.55A (human), sequence (P30874 whole entry N276A): as the sequence (P30874 whole entry) above, with N276A counted along it
SSTR2 I284^ECL3A (human), sequence (P30874 whole entry I284A): as the sequence (P30874 whole entry) above, with I284A counted along it
SSTR2 S285^ECL3A (human), sequence (P30874 whole entry S285A): as the sequence (P30874 whole entry) above, with S285A counted along it
SSTR2 I195^45.52A (human), sequence (P30874 whole entry I195A): as the sequence (P30874 whole entry) above, with I195A counted along it
SSTR2 T194^45.51A (human), sequence (P30874 whole entry T194A): as the sequence (P30874 whole entry) above, with T194A counted along it
SSTR3 N101^2.64V (human), sequence (P32745 whole entry): as the sequence (P32745 whole entry) above
SSTR2 F294^7.35A (human), sequence (P30874 whole entry F294A): as the sequence (P30874 whole entry) above, with F294A counted along it
SSTR2 F127^3.37A (human), sequence (P30874 whole entry F127A): as the sequence (P30874 whole entry) above, with F127A counted along it

EC50 of octreotide-induced cAMP inhibition (Gi signaling, GloSensor, HEK293 cells expressing the receptor) (SSTR2 Q102^2.63A (human)): 66.8 nM
EC50 of octreotide-induced cAMP inhibition (Gi signaling, GloSensor, HEK293 cells expressing the receptor) (SSTR2 T287^ECL3A (human)): 0.6 nM
EC50 of octreotide-induced cAMP inhibition (Gi signaling, GloSensor, HEK293 cells expressing the receptor) (SSTR2 K291^7.32A (human)): 5.46 nM
EC50 of octreotide-induced cAMP inhibition (Gi signaling, GloSensor, HEK293 cells expressing the receptor) (SSTR2 Y302^7.43A (human)): 79 nM
EC50 of octreotide-induced cAMP inhibition (Gi signaling, GloSensor, HEK293 cells expressing the receptor) (SSTR2 F127^3.37A (human)): 1.93 nM
EC50 of octreotide-induced cAMP inhibition (Gi signaling, GloSensor, HEK293 cells expressing the receptor) (SSTR2 I284^ECL3A (human)): 1.91 nM
EC50 of octreotide-induced cAMP inhibition (Gi signaling, GloSensor, HEK293 cells expressing the receptor) (SSTR2 N276^6.55A (human)): 35.1 nM
EC50 of octreotide-induced cAMP inhibition (Gi signaling, GloSensor, HEK293 cells expressing the receptor) (SSTR2 F294^7.35A (human)): 190 nM
EC50 of octreotide-induced cAMP inhibition (Gi signaling, GloSensor, HEK293 cells expressing the receptor) (SSTR2 Y205^5.35A (human)): 0.92 nM
EC50 of octreotide-induced cAMP inhibition (Gi signaling, GloSensor, HEK293 cells expressing the receptor) [1]: 48.5 nM
EC50 of octreotide-induced cAMP inhibition (Gi signaling, GloSensor, HEK293 cells expressing the receptor) [2]: 0.46 nM
EC50 of octreotide-induced cAMP inhibition (Gi signaling, GloSensor, HEK293 cells expressing the receptor) (SSTR2 L99^2.60A (human)): 1.25 nM
EC50 of octreotide-induced cAMP inhibition (Gi signaling, GloSensor, HEK293 cells expressing the receptor) (SSTR2 W188^ECL3A (human)): 0.32 nM
EC50 of octreotide-induced cAMP inhibition (Gi signaling, GloSensor, HEK293 cells expressing the receptor) [3]: 6.58 nM
EC50 of octreotide-induced cAMP inhibition (Gi signaling, GloSensor, HEK293 cells expressing the receptor) (SSTR2 F272^6.51A (human)): 322 nM
EC50 of octreotide-induced cAMP inhibition (Gi signaling, GloSensor, HEK293 cells expressing the receptor) (SSTR2 P286^ECL3A (human)): 0.62 nM
EC50 of octreotide-induced cAMP inhibition (Gi signaling, GloSensor, HEK293 cells expressing the receptor) (SSTR2 S279^6.58A (human)): 1.17 nM
EC50 of octreotide-induced cAMP inhibition (Gi signaling, GloSensor, HEK293 cells expressing the receptor) (SSTR2 S285^ECL3A (human)): 0.69 nM
EC50 of octreotide-induced cAMP inhibition (Gi signaling, GloSensor, HEK293 cells expressing the receptor) (SSTR2 F208^5.38A (human)): 6.42 nM
octreotide induced cAMP inhibition (GloSensor, HEK293 cells, 1e-13 to 1e-06): EC50 of the fit WT-1 (SSTR3) [4]: 54.7 nM
octreotide induced cAMP inhibition (GloSensor, HEK293 cells, 1e-13 to 1e-06): EC50 of the fit WT-2 (SSTR3) [4]: 30.1 nM
octreotide induced cAMP inhibition (GloSensor, HEK293 cells, 1e-13 to 1e-06): EC50 of the fit T194H-1 [5]: 28.2 nM
octreotide induced cAMP inhibition (GloSensor, HEK293 cells, 1e-13 to 1e-06): EC50 of the fit T194H-2 [5]: 28.2 nM
octreotide induced cAMP inhibition (GloSensor, HEK293 cells, 1e-13 to 1e-06): EC50 of the fit V103N-1 [6]: 227 pM
octreotide induced cAMP inhibition (GloSensor, HEK293 cells, 1e-13 to 1e-06): EC50 of the fit V103N-2 [6]: 227 pM
octreotide induced cAMP inhibition (GloSensor, HEK293 cells, 1e-13 to 1e-06): EC50 of the fit N101V-1 [7]: 2.5 nM
octreotide induced cAMP inhibition (GloSensor, HEK293 cells, 1e-13 to 1e-06): EC50 of the fit N101V-2 [7]: 1.33 nM
octreotide induced cAMP inhibition (GloSensor, HEK293 cells, 1e-13 to 1e-06): EC50 of the fit H192T-1 [8]: 82.9 nM
octreotide induced cAMP inhibition (GloSensor, HEK293 cells, 1e-13 to 1e-06): EC50 of the fit H192T-2 [8]: 21 nM
octreotide induced cAMP inhibition (GloSensor, HEK293 cells, 1e-13 to 1e-06): EC50 of the fit WT-1 [9]: 208 pM
octreotide induced cAMP inhibition (GloSensor, HEK293 cells, 1e-13 to 1e-06): EC50 of the fit WT-2 [9]: 208 pM
EC50 of octreotide-induced cAMP inhibition (GloSensor, HEK293 cells expressing the receptor; Supplementary Table 5) [10]: 30.1 nM
EC50 of octreotide-induced cAMP inhibition (GloSensor, HEK293 cells expressing the receptor; Supplementary Table 5) [11]: 21 nM
EC50 of octreotide-induced cAMP inhibition (GloSensor, HEK293 cells expressing the receptor; Supplementary Table 5) (SSTR3 N101^2.64V (human)): 1.33 nM
EC50 of octreotide-induced cAMP inhibition (GloSensor, HEK293 cells expressing the receptor; Supplementary Table 5) [12]: 18.7 nM
EC50 of octreotide-induced cAMP inhibition (GloSensor, HEK293 cells expressing the receptor; Supplementary Table 5) (SSTR2 V103^2.64N (human)): 0.23 nM
EC50 of octreotide-induced cAMP inhibition (GloSensor, HEK293 cells expressing the receptor; Supplementary Table 5) [13]: 0.21 nM
Substance: octreotide (peptide)
